Measured values taken from the supplement of paper PMC6755084.

B1: F1*; the commonest letter at each place (parent)
chain: GAGACCGCAACTGAAAAGTTGTTATCACTTGTCGTAAGACACTTTGGATGGGTTGAAGTTCTGCACGTAGAAGCAAAAGGC

Variants of: B1
Experiment: fraction ligated after 30 min (ligated reads / total reads); higher = more ligase activity
Conditions: with F1*sub RNA substrate (template-directed ligation), 42 °C
Procedure, shortened: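 Oligo-pool templates underwent PCR amplification, T7 transcription and gel purification to yield ribozyme variants. Gel-separated ligated and unligated bands were converted to complementary DNA with barcoded primers and sequenced on a MiSeq, keeping core bases of quality ≥20. The ratio of ligated reads to total reads gave the fraction ligated for every variant.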

First: T44A G46T
Second: A37T T44C
The fraction ligated of the first is lower: 0.81 for the first, 0.847 for the second.

First: T25C T44G
Second: C28A T49C
The fraction ligated of the first is lower: 0.0249 for the first, 0.605 for the second.

Compared with C42A T45C, T44G A56T is higher in fraction ligated: 0.778 for the first, 0.809 for the second.

Going from C40A T45G to C40A T45C, the fraction ligated rises from 0.0271 to 0.358.

First: C26T G31A
Second: A36C T44A
The fraction ligated of the first is lower: 0.342 for the first, 0.827 for the second.

First: C26G A56G
Second: T32C A36C
The fraction ligated of the first is lower: 0.0248 for the first, 0.795 for the second.

Going from T23A A27G to T45C A56C, the fraction ligated falls from 0.794 to 0.747.

First: T45C A56T
Second: T29A C40T
The fraction ligated of the first is lower: 0.473 for the first, 0.857 for the second.

Compared with A36T C40A, C26G C28A is lower in fraction ligated: 0.823 for the first, 0.688 for the second.

First: T35A G55C
Second: A41T T45G
The fraction ligated of the first is higher: 0.819 for the first, 0.283 for the second.

Going from A39C A48C to G31C G47C, the fraction ligated falls from 0.0845 to 0.0426.

Going from T44A A48C to T29G G34C, the fraction ligated rises from 0.758 to 0.808.

Going from T30G C40T to A24G T43A, the fraction ligated falls from 0.819 to 0.765.

A24G T43C and A24G T43G are the same in fraction ligated: 0.694 for the first, 0.694 for the second.

First: A36G T44G
Second: C28A A56C
The fraction ligated of the first is higher: 0.856 for the first, 0.718 for the second.

First: G38C C40T
Second: G38C C40A
The fraction ligated of the first is lower: 0.802 for the first, 0.811 for the second.

Going from C33T A41G to G55C A56C A57C, the fraction ligated falls from 0.8 to 0.0245.

First: G46A T49A
Second: A24T G46C
The fraction ligated of the first is higher: 0.501 for the first, 0.313 for the second.

Going from G38T C40T to T25G G34T, the fraction ligated falls from 0.805 to 0.735.

Compared with C40G G47T, G31C G55T is higher in fraction ligated: 0.438 for the first, 0.794 for the second.

Going from A27T C42G to T23G T30G, the fraction ligated falls from 0.819 to 0.8.

Compared with T29G A48T, A48C A57T is lower in fraction ligated: 0.773 for the first, 0.719 for the second.

Going from G38C A41C to T23G T35A, the fraction ligated rises from 0.807 to 0.834.

Compared with C33T A37C, A37T A48C is lower in fraction ligated: 0.868 for the first, 0.763 for the second.

Going from A37C G47T to T49C A57C, the fraction ligated falls from 0.406 to 0.266.

Compared with A27C G47A, C28A C42A is higher in fraction ligated: 0.799 for the first, 0.803 for the second.

Going from T43C G46A to T35A G46C, the fraction ligated rises from 0.789 to 0.799.

Compared with G31C C40T, T30A T44A is higher in fraction ligated: 0.791 for the first, 0.855 for the second.

Going from C33G T35G to T30G T43A, the fraction ligated rises from 0.843 to 0.859.

First: T32C G50A
Second: T23C T30G
The fraction ligated of the first is lower: 0.216 for the first, 0.833 for the second.

Going from C28T T30A to T25A T35G, the fraction ligated falls from 0.814 to 0.764.

Going from G38A T43C to A27G C42G, the fraction ligated falls from 0.816 to 0.812.

Compared with A56G A57T, A24T G47T is lower in fraction ligated: 0.383 for the first, 0.108 for the second.

Compared with A39C G47C, A41T G55A is higher in fraction ligated: 0.349 for the first, 0.809 for the second.

Going from T49G G55T to A24C T43G, the fraction ligated rises from 0.243 to 0.792.

Going from G31T T32A to T44C, the fraction ligated rises from 0.835 to 0.837.

Compared with G34A C42G, T29G G55A is lower in fraction ligated: 0.85 for the first, 0.79 for the second.

First: T35G T43G
Second: A48T G55A
The fraction ligated of the first is higher: 0.801 for the first, 0.515 for the second.

Going from G50T A57T to G38T G55A, the fraction ligated rises from 0.324 to 0.823.

Compared with A36T G50A, A36T G50T is higher in fraction ligated: 0.642 for the first, 0.775 for the second.

Compared with G47A G50A, T32G A56C is higher in fraction ligated: 0.381 for the first, 0.743 for the second.

Compared with T29A A56G, T25A C42G is lower in fraction ligated: 0.789 for the first, 0.553 for the second.

Compared with T25G C28G, G47A A48T is higher in fraction ligated: 0.541 for the first, 0.803 for the second.

Going from C26A G50T to T54A, the fraction ligated rises from 0.0739 to 0.828.

Going from A36T A41C to A24T C26G, the fraction ligated falls from 0.774 to 0.201.

Compared with G31C T35C, G31A T49C is lower in fraction ligated: 0.769 for the first, 0.136 for the second.

First: G47T A57G
Second: G47T A57C
The fraction ligated of the first is higher: 0.101 for the first, 0.0653 for the second.

First: T44A A56G
Second: C33G C42T
The fraction ligated of the first is lower: 0.777 for the first, 0.833 for the second.

Going from C33G C42G to G34A T45G, the fraction ligated falls from 0.853 to 0.368.

Going from G52C to C26A A36G, the fraction ligated rises from 0.726 to 0.781.

Going from C26G A48T to T29G A41C, the fraction ligated rises from 0.00571 to 0.83.

Compared with G31T G34C, T23G A39C is higher in fraction ligated: 0.771 for the first, 0.776 for the second.

Going from A36G A56C to C26A G55A, the fraction ligated falls from 0.773 to 0.618.

Compared with T25C A39G, C26T G50A is lower in fraction ligated: 0.786 for the first, 0.0828 for the second.

Going from T35A A36G to T32C C33A, the fraction ligated rises from 0.857 to 0.863.

First: C40G T43A
Second: A56C A57T
The fraction ligated of the first is higher: 0.817 for the first, 0.77 for the second.

First: T25G G47C
Second: A41G A56T
The fraction ligated of the first is lower: 0.242 for the first, 0.756 for the second.

First: C26G A27C
Second: C26A A57G
The fraction ligated of the first is lower: 0.782 for the first, 0.804 for the second.

First: A27G A37C
Second: T30A T32C
The fraction ligated of the first is higher: 0.817 for the first, 0.768 for the second.

Compared with A36G T49C, T30G T35C is higher in fraction ligated: 0.4 for the first, 0.813 for the second.

Going from T49C G55A to T43C A56C, the fraction ligated rises from 0.335 to 0.731.

Going from T25G A36G to G31C G50T, the fraction ligated falls from 0.795 to 0.108.

Going from A27G T44C to C33T G34C, the fraction ligated rises from 0.81 to 0.831.

Going from T23A C40A to T43A G55T, the fraction ligated rises from 0.815 to 0.839.

Compared with A27G G38A, G50T A56G is lower in fraction ligated: 0.83 for the first, 0.0624 for the second.

Going from T32G G47A to A41G A48T, the fraction ligated rises from 0.556 to 0.625.

Going from A27G G34C to C26T T35C, the fraction ligated falls from 0.804 to 0.792.

Compared with G55A, T25C T30G is lower in fraction ligated: 0.822 for the first, 0.162 for the second.

Compared with T25C T30A, A41C G55A is higher in fraction ligated: 0.75 for the first, 0.804 for the second.

Compared with A41C G55T, C28G A57T is higher in fraction ligated: 0.751 for the first, 0.79 for the second.

Going from T30A C33A to T23G A27G, the fraction ligated falls from 0.847 to 0.788.

First: T23G A27T
Second: T25G C40G
The fraction ligated of the first is higher: 0.801 for the first, 0.58 for the second.

First: C42T T44G
Second: C26G T49A
The fraction ligated of the first is higher: 0.833 for the first, 0.188 for the second.

First: C33A T45A
Second: T44A A57T
The fraction ligated of the first is lower: 0.803 for the first, 0.815 for the second.

Going from T23A T29G to T25G G50C, the fraction ligated falls from 0.82 to 0.142.

First: C28T G31A
Second: T25A C28T
The fraction ligated of the first is higher: 0.81 for the first, 0.714 for the second.

Going from T29G T45A to C33G, the fraction ligated rises from 0.673 to 0.831.

Compared with A27G T43G, A27T G50A is lower in fraction ligated: 0.796 for the first, 0.412 for the second.

Going from C40A T44G to C33G C40G, the fraction ligated rises from 0.779 to 0.826.

Compared with G50C G55A, T30C G50A is higher in fraction ligated: 0.112 for the first, 0.175 for the second.

Compared with A41G T49A, C28T is higher in fraction ligated: 0.671 for the first, 0.812 for the second.

Going from T30C T49C to T30C C40G, the fraction ligated rises from 0.0166 to 0.828.

First: C28G A41G
Second: G46A A48T
The fraction ligated of the first is higher: 0.744 for the first, 0.0714 for the second.

G38C T43G showed a fraction ligated of 0.812.
